Reference: US20160333418A1 (SANTA MARIA BIOTHERAPEUTICS, published 2016)

T1: activin A (human, UniProt P08476 311-426)
T1 construct: also called homodimer of the polypeptide chains betaA; INHBA product
T1 sequence: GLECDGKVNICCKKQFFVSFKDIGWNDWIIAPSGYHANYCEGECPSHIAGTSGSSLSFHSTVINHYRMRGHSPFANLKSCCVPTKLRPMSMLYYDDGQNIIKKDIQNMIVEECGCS

T2: myostatin (human, UniProt O14793 267-375)
T2 construct: also called GDF-8; growth/differentiation factor 8
T2 sequence: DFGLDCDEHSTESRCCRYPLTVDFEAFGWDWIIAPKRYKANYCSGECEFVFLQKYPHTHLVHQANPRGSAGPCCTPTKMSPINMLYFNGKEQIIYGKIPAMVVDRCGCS


Key:
[1] = target: T1, activin A; assay: KinExA solution equilibrium binding, ligand-coated beads, room temperature
Description: (§1) Solution-based equilibrium-binding assays using KinExA™ technology (Sapidyne Instruments, Inc.) were used to determine the dissociation equilibrium (KD) of ligand binding to ActRIIB-Fc polypeptides. UltraLink Biosupport beads (Pierce) was pre-coated with about 100 μg/m1 each of myostatin, GDF-11, and activin A overnight, and then blocked with BSA. 1 pM and 3 pM of ActRIIB-Fc (E28W) (SEQ ID NO: 21) and svActRIIB-Fc (E28W, S44T) (SEQ ID NO: 10) samples were incubated with various concentrations (0.7 fM to 160 pM) of myostatin, activin A, and GDF-11 respectively in sample buffer at room temperature for 8 hours before being run through the ligand-coated beads. The amount of the bead-bound soluble receptor was quantified by fluorescent (Cy5) labeled goat anti-human-Fc antibody at 1 mg/ml in superblock. The binding signal is proportional to the concentration of free soluble receptor at equilibrium with a given myostatin, activin A, or GDF-11 concentration. KD was obtained from the nonlinear regression of the competition curves using a dual-curve one-site homogeneous binding model provided in the KinEx A™ software (Sapidyne Instruments, Inc.).

[2] = target: T2, myostatin; assay: as above
Description: as §1

[3] = target: GDF-11 (Homo sapiens (Human)) (UniProt O95390); assay: as above
[4] = target: T1, activin A; assay: cell-based or functional assay
[5] = target: T2, myostatin; assay: cell-based or functional assay
[6] = target: GDF-11 (Homo sapiens (Human)) (UniProt O95390); assay: cell-based or functional assay

Kd [1] | Kd [2] | Kd [3] | IC50, luciferase activity in C2C12/pMARE reporter cells, 4 nM ligand [4] | IC50, luciferase activity in C2C12/pMARE reporter cells, 4 nM ligand [5] | IC50, luciferase activity in C2C12/pMARE reporter cells, 4 nM ligand [6] | Binder
0.2 pM | 0.1 pM | 0.1 pM | 3.2 nM | 0.95 nM | 2.4 nM | ActRIIB-Fc (E28W) (Fc fusion, also called ActRIIB-IgG2Fc (E28W); ActRIIB-IgG Fc (E28W)) ETRWCIYYNANWELERTNQSGLERCEGEQDKRLHCYASWRNSSGTIELVKKGCWLDDFNCYDRQECVATEENPQVYFCCCEGNFCNERFTHLPEAGGPEVTYEPPPTAPTGGGGSVECPPCPAPPVAGPSVFLFPPKPKDTLMISRTPEVTCVVVDVSHEDPEVQFNWYVDGVEVHNAKTKPREEQFNSTFRVVSVLTVVHQDWLNGKEYKCKVSNKGLPAPIEKTISKTKGQPREPQVYTLPPSREEMTKNQVSLTCLVKGFYPSDIAVEWESNGQPENNYKTTPPMLDSDGSFFLYSKLTVDKSRWQQGNVFSCSVMHEALHNHYTQKSLSLSPGK
0.1 pM | 0.1 pM | 0.1 pM | 3.6 nM | 1.07 nM | 2.4 nM | svActRIIB-Fc (E28W, S44T) (Fc fusion, also called svActRIIB-IgG2Fc (E28W, S44T); svActRIIB-IgG Fc (E28W, S44T)) ETRWCIYYNANWELERTNQTGLERCEGEQDKRLHCYASWRNSSGTIELVKKGCWLDDFNCYDRQECVATEENPQVYFCCCEGNFCNERFTHLPEAGGPEVTYEPPPTAPTGGGGSVECPPCPAPPVAGPSVFLFPPKPKDTLMISRTPEVTCVVVDVSHEDPEVQFNWYVDGVEVHNAKTKPREEQFNSTFRVVSVLTVVHQDWLNGKEYKCKVSNKGLPAPIEKTISKTKGQPREPQVYTLPPSREEMTKNQVSLTCLVKGFYPSDIAVEWESNGQPENNYKTTPPMLDSDGSFFLYSKLTVDKSRWQQGNVFSCSVMHEALHNHYTQKSLSLSPGK
